Measured values from PMC4852880.

Target: HMGB1b (rat, UniProt P63159 95-163)
Assay: EMSA

Sequence of HMGB1b (P63159 95-163): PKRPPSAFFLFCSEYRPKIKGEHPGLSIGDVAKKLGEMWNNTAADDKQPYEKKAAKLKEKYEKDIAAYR

B1: J1 (structured_DNA)
DNA 1: CGCAATCCTGAGCACG
DNA 2: CGTGCTCACCGAATCG
DNA 3: GCATTCGGACTATGGC
DNA 4: GCCATAGTGGATTGCG
binding result: binds
